Results on twelve molecules are retold here after patent US20240270821A1, “GIP/GLP1/GCG TRI-RECEPTOR AGONISTS AND USES THEREOF” (priority 2023, published 2024).

Assay in all cases: cell-based or functional assay
In one test the target is hGLP-1R (Homo sapiens, UniProt P43220).
Test [1] addresses human glucagon receptor (human) (UniProt P47871).
In test [2] the target is T1, human GIP receptor (human) (UniProt P48546).
T1 sequence (looked up): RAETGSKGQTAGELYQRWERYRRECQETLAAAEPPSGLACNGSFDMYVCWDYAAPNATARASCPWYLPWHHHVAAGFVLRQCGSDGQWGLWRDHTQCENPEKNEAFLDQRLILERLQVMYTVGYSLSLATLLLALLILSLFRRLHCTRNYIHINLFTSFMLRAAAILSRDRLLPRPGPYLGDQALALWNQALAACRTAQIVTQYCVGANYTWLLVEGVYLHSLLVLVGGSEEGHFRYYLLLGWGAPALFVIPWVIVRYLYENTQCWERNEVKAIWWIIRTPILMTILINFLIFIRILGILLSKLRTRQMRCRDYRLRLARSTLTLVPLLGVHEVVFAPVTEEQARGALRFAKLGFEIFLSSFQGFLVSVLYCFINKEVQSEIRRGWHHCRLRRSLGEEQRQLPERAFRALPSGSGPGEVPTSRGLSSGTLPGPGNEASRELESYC

hGLP-1R, sequence (P43220 24-463): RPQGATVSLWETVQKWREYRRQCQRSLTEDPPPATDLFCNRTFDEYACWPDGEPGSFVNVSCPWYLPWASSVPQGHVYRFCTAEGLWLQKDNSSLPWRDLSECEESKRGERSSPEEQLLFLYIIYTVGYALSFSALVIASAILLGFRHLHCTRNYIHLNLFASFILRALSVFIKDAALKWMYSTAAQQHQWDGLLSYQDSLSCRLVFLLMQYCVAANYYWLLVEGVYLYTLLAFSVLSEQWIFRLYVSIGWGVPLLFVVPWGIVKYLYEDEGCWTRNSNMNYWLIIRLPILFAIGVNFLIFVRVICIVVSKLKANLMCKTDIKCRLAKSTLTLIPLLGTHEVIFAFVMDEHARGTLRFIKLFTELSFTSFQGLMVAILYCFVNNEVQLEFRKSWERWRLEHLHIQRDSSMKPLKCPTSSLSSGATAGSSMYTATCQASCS
human glucagon receptor (human), sequence (P47871 26-477): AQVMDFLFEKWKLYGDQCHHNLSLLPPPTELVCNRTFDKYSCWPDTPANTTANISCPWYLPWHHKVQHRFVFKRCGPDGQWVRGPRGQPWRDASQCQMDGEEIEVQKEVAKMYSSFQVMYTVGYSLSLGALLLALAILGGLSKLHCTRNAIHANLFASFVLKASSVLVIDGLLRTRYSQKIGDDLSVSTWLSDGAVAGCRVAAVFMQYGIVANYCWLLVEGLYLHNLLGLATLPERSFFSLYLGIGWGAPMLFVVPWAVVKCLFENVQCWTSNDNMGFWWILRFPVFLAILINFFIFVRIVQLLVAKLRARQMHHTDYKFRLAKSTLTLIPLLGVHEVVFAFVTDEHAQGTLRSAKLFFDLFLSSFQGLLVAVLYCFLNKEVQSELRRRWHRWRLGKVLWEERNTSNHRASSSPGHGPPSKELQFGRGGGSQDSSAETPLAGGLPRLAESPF

B1: Example 234 (peptide)
chain: YXQGTFTSDFSXXLDKKAQXAFIEYLLEGGXSSGAPPPGGS
modifications: Aib, Orn, αMeL, Hyp; lipidated Lys; C-terminal amide; synthetic construct; SITE 2: note = 2-Aminoisobutyric Acid; SITE 12: note = L-ornithine; SITE 13: note = alpha-methyl-leucine; SITE 17: note = Lysine is chemically modified through conjugation of the epsilon-amino group of the Lysine side chain with (2-[2-(2-Amino-ethoxy)-ethoxy]-acetyl)-(gamma-Glu)
For the molecule B1, the results for the Relative cAMP EC50 (in the test with hGLP-1R; in test [1]; in test [2]) were 4.72 nM, 7.87 nM and 0.322 nM, respectively. Also, the cAMP Rel EC50, nM (1% HSA) with hGLP-1R is 604 nM; in test [1], 702 nM; in test [2], 31.1 nM.

B2: Example 258 (peptide)
chain: YXQGTFTSDFSXXLDKKAQXAFIEYLLEAGPSSGXPPPSGX
modifications: synthetic construct; SITE 2: note = 2-Aminoisobutyric Acid; SITE 12: note = L-ornithine; SITE 13: note = alpha-methyl-leucine; SITE 17: note = Lysine is chemically modified through conjugation of the epsilon-amino group of the Lysine side chain with (2-[2-(2-Amino-ethoxy)-ethoxy]-acetyl)2-(gamma-Glu)
Take B2: the Relative cAMP EC50 in the test with hGLP-1R came to 2.71 nM; in test [1], 7.15 nM; in test [2] it was 0.154 nM. Moreover, the cAMP Rel EC50 (in the presence of 1% HSA) with hGLP-1R amounted to 492 nM; in test [1] it was 1280 nM; in test [2], 23.3 nM.

B3: Example 215 (peptide)
chain: YXQGTFTSDFSKXLDKKAQXAFIEYLIEGGESSGAPPPSGS
modifications: Lys acylated with AEEA-γGlu-C18 diacid; non-natural residues; C-amide; synthetic construct; SITE 2: note = 2-Aminoisobutyric Acid; SITE 13: note = alpha-methyl-leucine; SITE 17: note = Lysine is chemically modified through conjugation of the epsilon-amino group of the Lysine side chain with (2-[2-(2-Amino-ethoxy)-ethoxy]-acetyl)-(gamma-Glu)-CO-(CH2) 16-CO2H; SITE 20: n
For the molecule B3, the Relative cAMP EC50 with hGLP-1R was 0.803 nM; in test [1] it was 9.77 nM; in test [2], 0.418 nM. The cAMP Rel EC50, nM (1% HSA) with hGLP-1R came out at 162 nM; in test [1], 1510 nM; in test [2] it was 87.3 nM.

B4: Example 229 (peptide)
chain: YXQGTFTSDFSXXLDKKAQXAFIEYLIEXGESSGAPPPSGS
modifications: non-natural residues; lipidated Lys AEEA-γGlu-C18 diacid; C-term amide; synthetic construct; SITE 2: note = 2-Aminoisobutyric Acid; SITE 12: note = L-ornithine; SITE 13: note = alpha-methyl-leucine; SITE 17: note = Lysine is chemically modified through conjugation of the epsilon-amino group of the Lysine side chain with (2-[2-(2-Amino-ethoxy)-ethoxy]-acetyl)-(gamma-Glu)
Regarding B4, the Relative cAMP EC50 was found to be 1.58 nM with hGLP-1R, 2.3 nM in test [1] and 0.179 nM in test [2].

B5: Example 261 (peptide)
chain: YXQGTFTSDFSXXLDKKAQXAFIEYLLEGGPSSGAPPPGGX
modifications: synthetic construct; SITE 2: note = 2-Aminoisobutyric Acid; SITE 12: note = L-ornithine; SITE 13: note = alpha-methyl-leucine; SITE 17: note = Lysine is chemically modified through conjugation of the epsilon-amino group of the Lysine side chain with (2-[2-(2-Amino-ethoxy)-ethoxy]-acetyl)-(gamma-Glu)
Take B5: the Relative cAMP EC50 with hGLP-1R was determined as 3.12 nM; in test [1], 5.49 nM; in test [2], 0.29 nM. Further, the cAMP Rel EC50 (in the presence of 1% HSA) turned out to be 383 nM in the test with hGLP-1R, 520 nM in test [1] and 38.4 nM in test [2].

B6: Example 257 (peptide)
chain: YXQGTFTSDFSXXLDKKAQXAFIEYLLEAGPSSGXPPPSGH
modifications: synthetic construct; SITE 2: note = 2-Aminoisobutyric Acid; SITE 12: note = L-ornithine; SITE 13: note = alpha-methyl-leucine; SITE 17: note = Lysine is chemically modified through conjugation of the epsilon-amino group of the Lysine side chain with (2-[2-(2-Amino-ethoxy)-ethoxy]-acetyl)2-(gamma-Glu)
Take B6: the figures for the Relative cAMP EC50 (with hGLP-1R; in test [1]; in test [2]) were 2.66 nM, 7.36 nM and 0.135 nM, respectively. The cAMP Rel EC50 (in the presence of 1% HSA) in the test with hGLP-1R came to 388 nM; in test [1], 1210 nM; in test [2] it was 21 nM.

B7: Example 213 (peptide)
chain: YXQGTFTSDFSXXLDKKAQXAFIEYLLEAGPSSGAPPPSGT
modifications: non-natural residues, AEEA-γGlu-C18 diacid acylation; synthetic construct; SITE 2: note = 2-Aminoisobutyric Acid; SITE 12: note = L-ornithine; SITE 13: note = alpha-methyl-leucine; SITE 17: note = Lysine is chemically modified through conjugation of the epsilon-amino group of the Lysine side chain with (2-[2-(2-Amino-ethoxy)-ethoxy]-acetyl)-(gamma-Glu)
For B7, the values for the Relative cAMP EC50 (with hGLP-1R; in test [1]; in test [2]) were 1.9 nM, 3.61 nM and 0.124 nM, respectively.

B8: Example 228 (peptide)
chain: YXQGTFTSDFSXXLDKKAQXAFIEYLIEXGESSGAPPPSGE
modifications: non-natural residues, acylated Lys, C-terminal amide; synthetic construct; SITE 2: note = 2-Aminoisobutyric Acid; SITE 12: note = L-ornithine; SITE 13: note = alpha-methyl-leucine; SITE 17: note = Lysine is chemically modified through conjugation of the epsilon-amino group of the Lysine side chain with (2-[2-(2-Amino-ethoxy)-ethoxy]-acetyl)-(gamma-Glu)
Take B8: the Relative cAMP EC50 with hGLP-1R turned out to be 1.52 nM; in test [1], 1.38 nM; in test [2], 0.147 nM.

B9: Example 240 (peptide)
chain: YXQGTFTSDFSXXLDKKAQXAFIEYLLEXGESSGAPPPSGS
modifications: non-natural residues; lipidated Lys; C-terminal amide; synthetic construct; SITE 2: note = 2-Aminoisobutyric Acid; SITE 12: note = L-ornithine; SITE 13: note = alpha-methyl-leucine; SITE 17: note = Lysine is chemically modified through conjugation of the epsilon-amino group of the Lysine side chain with (2-[2-(2-Amino-ethoxy)-ethoxy]-acetyl)-(gamma-Glu)
As to B9, the Relative cAMP EC50 with hGLP-1R worked out at 3.62 nM; in test [1], 2.02 nM; in test [2], 0.214 nM. Also, the results for the cAMP Rel EC50, nM (1% HSA) (in the test with hGLP-1R; in test [1]; in test [2]) were 396 nM, 521 nM and 10.4 nM, respectively.

B10: Example 220 (peptide)
chain: YXQGTFTSDFSRXLDKKAQXAFIEYLIEGGESSGAPPPSGS
modifications: non-natural residues; lysine acylated with AEEA linker C18 diacid; C-amide; synthetic construct; SITE 2: note = 2-Aminoisobutyric Acid; SITE 13: note = alpha-methyl-leucine; SITE 17: note = Lysine is chemically modified through conjugation of the epsilon-amino group of the Lysine side chain with (2-[2-(2-Amino-ethoxy)-ethoxy]-acetyl)-(gamma-Glu)-CO-(CH2) 16-CO2H; SITE 20: n
In the case of B10, the results for the Relative cAMP EC50 (with hGLP-1R; in test [1]; in test [2]) were 1.01 nM, 11.2 nM and 0.411 nM, respectively. The cAMP Rel EC50, nM (1% HSA) in the test with hGLP-1R was 189 nM; in test [1], 1990 nM; in test [2], 87.1 nM.

B11: Example 237 (peptide)
chain: YXQGTFTSDFSXXLDKKAQXAFIEYLLEGGPSSGAPPXGGS
modifications: non-natural residues; lipidated Lys AEEA-γGlu-C18 diacid; C-term amide; synthetic construct; SITE 2: note = 2-Aminoisobutyric Acid; SITE 12: note = L-ornithine; SITE 13: note = alpha-methyl-leucine; SITE 17: note = Lysine is chemically modified through conjugation of the epsilon-amino group of the Lysine side chain with (2-[2-(2-Amino-ethoxy)-ethoxy]-acetyl)-(gamma-Glu)
For B11, the Relative cAMP EC50 with hGLP-1R is 3.4 nM; in test [1], 3.77 nM; in test [2], 0.228 nM. Also, the cAMP Rel EC50, nM (1% HSA) with hGLP-1R came out at 291 nM; in test [1] it was 441 nM; in test [2], 30.9 nM.

B12: Example 245 (peptide)
chain: YXQGTFTSDFSXXLDKKAQXAFIEYLLEXGHSSGAPPPSGS
modifications: Aib, Orn, αMeL; lipidated Lys; C-terminal amide; synthetic construct; SITE 2: note = 2-Aminoisobutyric Acid; SITE 12: note = L-ornithine; SITE 13: note = alpha-methyl-leucine; SITE 17: note = Lysine is chemically modified through conjugation of the epsilon-amino group of the Lysine side chain with (gamma-Glu)-(2-[2-(2-Amino-ethoxy)-ethoxy]-acetyl)
Take B12: the Relative cAMP EC50 with hGLP-1R was 5.99 nM; in test [1] it was 7.07 nM; in test [2], 0.0684 nM. The cAMP Rel EC50, nM (1% HSA) is 540 nM in the test with hGLP-1R, 1120 nM in test [1] and 10.5 nM in test [2].
